# Source: IntAct's records for PubMed 26977880
# B1: Tumor necrosis factor ligand superfamily member 14 (Homo sapiens), O43557 (parent)
# chain: MEESVVRPSVFVVDGQTDIPFTRLGRSHRRQSCSVARVGLGLLLLLMGAGLAVQGWFLLQLHWRLGEMVTRLPDGPAGSWEQLIQERRSHEVNPAAHLTGANSSLTGSGGPLLWETQLGLAFLRGLSYHDGALVVTKAGYYYIYSKVQLGGVGCPLGLASTITHGLYKRTPRYPEELELLVSQQSPCGRATSSSRVWWDSSFLGGVVHLEAGEKVVVRVLDERLVRLRDGTRSYFGAFMV
# Variants of: B1
# Conditions: with tnr3_mouse Ltbr
row,effect of a mutation on the interaction,Variant
1,causing an interaction,A138T;S160G;D221G;E222K
